The binders below were run against T1, CD3 epsilon homodimer protein (UniProt P07766 23-126) (assay: SPR Biacore T200, CD3e homodimer on chip, vs unaltered GLS3000 antibody).
T1 construct: also called CD3 (CD3 epsilon)
T1 sequence (P07766 23-126): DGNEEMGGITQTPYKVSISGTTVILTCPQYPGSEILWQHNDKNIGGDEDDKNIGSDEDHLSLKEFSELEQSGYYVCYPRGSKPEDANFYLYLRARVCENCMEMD

ratio of amounts bound (Z=Y/X)	Binder
0.24	GLS3000 S25L (antibody, name in Kabat numbering, V domains shown, one-arm IgG as m2) VH: QVQLVESGGGVVQPGRSLRLSCAASGFTFSNAWMHWVRQAPGKGLEWVAQIKAKSNNYATYYAESVKGRFTISRDDSKNSLYLQMNSLKTEDTAVYYCRYVHYGAYYGVDAWGQGTTVTVSS VL: DIVMTQSPLSLPVTPGEPASISCRLSQSLVHSNRNTYLHWYQQKPGQAPRLLIYKVSNRFSGVPDRFSGSGSGTDFTLKISRVEAEDVGVYYCGQGTQVPYTFGQGTKLEIK
0.86	GLS3000 S26D (antibody, name in Kabat numbering, V domains shown, one-arm IgG as m2) VH: QVQLVESGGGVVQPGRSLRLSCAASGFTFSNAWMHWVRQAPGKGLEWVAQIKAKSNNYATYYAESVKGRFTISRDDSKNSLYLQMNSLKTEDTAVYYCRYVHYGAYYGVDAWGQGTTVTVSS VL: DIVMTQSPLSLPVTPGEPASISCRSDQSLVHSNRNTYLHWYQQKPGQAPRLLIYKVSNRFSGVPDRFSGSGSGTDFTLKISRVEAEDVGVYYCGQGTQVPYTFGQGTKLEIK
0.99	GLS3000 S27aP (antibody, name in Kabat numbering, V domains shown, one-arm IgG as m2) VH: QVQLVESGGGVVQPGRSLRLSCAASGFTFSNAWMHWVRQAPGKGLEWVAQIKAKSNNYATYYAESVKGRFTISRDDSKNSLYLQMNSLKTEDTAVYYCRYVHYGAYYGVDAWGQGTTVTVSS VL: DIVMTQSPLSLPVTPGEPASISCRSSQPLVHSNRNTYLHWYQQKPGQAPRLLIYKVSNRFSGVPDRFSGSGSGTDFTLKISRVEAEDVGVYYCGQGTQVPYTFGQGTKLEIK
0.78	GLS3000 S26P (antibody, name in Kabat numbering, V domains shown, one-arm IgG as m2) VH: QVQLVESGGGVVQPGRSLRLSCAASGFTFSNAWMHWVRQAPGKGLEWVAQIKAKSNNYATYYAESVKGRFTISRDDSKNSLYLQMNSLKTEDTAVYYCRYVHYGAYYGVDAWGQGTTVTVSS VL: DIVMTQSPLSLPVTPGEPASISCRSPQSLVHSNRNTYLHWYQQKPGQAPRLLIYKVSNRFSGVPDRFSGSGSGTDFTLKISRVEAEDVGVYYCGQGTQVPYTFGQGTKLEIK
0.31	GLS3000 S25M (antibody, name in Kabat numbering, V domains shown, one-arm IgG as m2) VH: QVQLVESGGGVVQPGRSLRLSCAASGFTFSNAWMHWVRQAPGKGLEWVAQIKAKSNNYATYYAESVKGRFTISRDDSKNSLYLQMNSLKTEDTAVYYCRYVHYGAYYGVDAWGQGTTVTVSS VL: DIVMTQSPLSLPVTPGEPASISCRMSQSLVHSNRNTYLHWYQQKPGQAPRLLIYKVSNRFSGVPDRFSGSGSGTDFTLKISRVEAEDVGVYYCGQGTQVPYTFGQGTKLEIK
0.73	GLS3000 S25V (antibody, name in Kabat numbering, V domains shown, one-arm IgG as m2) VH: QVQLVESGGGVVQPGRSLRLSCAASGFTFSNAWMHWVRQAPGKGLEWVAQIKAKSNNYATYYAESVKGRFTISRDDSKNSLYLQMNSLKTEDTAVYYCRYVHYGAYYGVDAWGQGTTVTVSS VL: DIVMTQSPLSLPVTPGEPASISCRVSQSLVHSNRNTYLHWYQQKPGQAPRLLIYKVSNRFSGVPDRFSGSGSGTDFTLKISRVEAEDVGVYYCGQGTQVPYTFGQGTKLEIK
0.74	GLS3000 S26E (antibody, name in Kabat numbering, V domains shown, one-arm IgG as m2) VH: QVQLVESGGGVVQPGRSLRLSCAASGFTFSNAWMHWVRQAPGKGLEWVAQIKAKSNNYATYYAESVKGRFTISRDDSKNSLYLQMNSLKTEDTAVYYCRYVHYGAYYGVDAWGQGTTVTVSS VL: DIVMTQSPLSLPVTPGEPASISCRSEQSLVHSNRNTYLHWYQQKPGQAPRLLIYKVSNRFSGVPDRFSGSGSGTDFTLKISRVEAEDVGVYYCGQGTQVPYTFGQGTKLEIK
0.79	GLS3000 S27aD (antibody, name in Kabat numbering, V domains shown, one-arm IgG as m2) VH: QVQLVESGGGVVQPGRSLRLSCAASGFTFSNAWMHWVRQAPGKGLEWVAQIKAKSNNYATYYAESVKGRFTISRDDSKNSLYLQMNSLKTEDTAVYYCRYVHYGAYYGVDAWGQGTTVTVSS VL: DIVMTQSPLSLPVTPGEPASISCRSSQDLVHSNRNTYLHWYQQKPGQAPRLLIYKVSNRFSGVPDRFSGSGSGTDFTLKISRVEAEDVGVYYCGQGTQVPYTFGQGTKLEIK
0.83	GLS3000 S25T (antibody, name in Kabat numbering, V domains shown, one-arm IgG as m2) VH: QVQLVESGGGVVQPGRSLRLSCAASGFTFSNAWMHWVRQAPGKGLEWVAQIKAKSNNYATYYAESVKGRFTISRDDSKNSLYLQMNSLKTEDTAVYYCRYVHYGAYYGVDAWGQGTTVTVSS VL: DIVMTQSPLSLPVTPGEPASISCRTSQSLVHSNRNTYLHWYQQKPGQAPRLLIYKVSNRFSGVPDRFSGSGSGTDFTLKISRVEAEDVGVYYCGQGTQVPYTFGQGTKLEIK
1.1	GLS3000 S27aN (antibody, name in Kabat numbering, V domains shown, one-arm IgG as m2) VH: QVQLVESGGGVVQPGRSLRLSCAASGFTFSNAWMHWVRQAPGKGLEWVAQIKAKSNNYATYYAESVKGRFTISRDDSKNSLYLQMNSLKTEDTAVYYCRYVHYGAYYGVDAWGQGTTVTVSS VL: DIVMTQSPLSLPVTPGEPASISCRSSQNLVHSNRNTYLHWYQQKPGQAPRLLIYKVSNRFSGVPDRFSGSGSGTDFTLKISRVEAEDVGVYYCGQGTQVPYTFGQGTKLEIK
1.01	GLS3000 S25P (antibody, name in Kabat numbering, V domains shown, one-arm IgG as m2) VH: QVQLVESGGGVVQPGRSLRLSCAASGFTFSNAWMHWVRQAPGKGLEWVAQIKAKSNNYATYYAESVKGRFTISRDDSKNSLYLQMNSLKTEDTAVYYCRYVHYGAYYGVDAWGQGTTVTVSS VL: DIVMTQSPLSLPVTPGEPASISCRPSQSLVHSNRNTYLHWYQQKPGQAPRLLIYKVSNRFSGVPDRFSGSGSGTDFTLKISRVEAEDVGVYYCGQGTQVPYTFGQGTKLEIK
1.1	GLS3000 S27aY (antibody, name in Kabat numbering, V domains shown, one-arm IgG as m2) VH: QVQLVESGGGVVQPGRSLRLSCAASGFTFSNAWMHWVRQAPGKGLEWVAQIKAKSNNYATYYAESVKGRFTISRDDSKNSLYLQMNSLKTEDTAVYYCRYVHYGAYYGVDAWGQGTTVTVSS VL: DIVMTQSPLSLPVTPGEPASISCRSSQYLVHSNRNTYLHWYQQKPGQAPRLLIYKVSNRFSGVPDRFSGSGSGTDFTLKISRVEAEDVGVYYCGQGTQVPYTFGQGTKLEIK
0.81	GLS3000 S27aE (antibody, name in Kabat numbering, V domains shown, one-arm IgG as m2) VH: QVQLVESGGGVVQPGRSLRLSCAASGFTFSNAWMHWVRQAPGKGLEWVAQIKAKSNNYATYYAESVKGRFTISRDDSKNSLYLQMNSLKTEDTAVYYCRYVHYGAYYGVDAWGQGTTVTVSS VL: DIVMTQSPLSLPVTPGEPASISCRSSQELVHSNRNTYLHWYQQKPGQAPRLLIYKVSNRFSGVPDRFSGSGSGTDFTLKISRVEAEDVGVYYCGQGTQVPYTFGQGTKLEIK
1.03	GLS3000 S27aG (antibody, name in Kabat numbering, V domains shown, one-arm IgG as m2) VH: QVQLVESGGGVVQPGRSLRLSCAASGFTFSNAWMHWVRQAPGKGLEWVAQIKAKSNNYATYYAESVKGRFTISRDDSKNSLYLQMNSLKTEDTAVYYCRYVHYGAYYGVDAWGQGTTVTVSS VL: DIVMTQSPLSLPVTPGEPASISCRSSQGLVHSNRNTYLHWYQQKPGQAPRLLIYKVSNRFSGVPDRFSGSGSGTDFTLKISRVEAEDVGVYYCGQGTQVPYTFGQGTKLEIK
1	GLS3000 S27aI (antibody, name in Kabat numbering, V domains shown, one-arm IgG as m2) VH: QVQLVESGGGVVQPGRSLRLSCAASGFTFSNAWMHWVRQAPGKGLEWVAQIKAKSNNYATYYAESVKGRFTISRDDSKNSLYLQMNSLKTEDTAVYYCRYVHYGAYYGVDAWGQGTTVTVSS VL: DIVMTQSPLSLPVTPGEPASISCRSSQILVHSNRNTYLHWYQQKPGQAPRLLIYKVSNRFSGVPDRFSGSGSGTDFTLKISRVEAEDVGVYYCGQGTQVPYTFGQGTKLEIK
